According to US20210187071A1, “COMPOSITIONS COMPRISING MDA-7/IL-24 PROTEIN AND METHODS OF USE” (VIRGINIA COMMONWEALTH UNIVERSITY, priority 2017, published 2021):
“Also recorded” adds a separate entry of the source.

Columns and labels:
[1] = tested on: TRAP, Cathepsin K (CTSK), and Calcitonin Receptor (CTR) genes; assay: RQ-PCR of osteoclastic genes in RAW 264.7 cells; assay type: cell-based, mouse; settings: 5 days, MDA-7/IL-24 protein 10 μg/mL, RANKL 100 ng/mL
Experimental: Real Time q-PCR: Total RNA was isolated from cells with the RNA isolation kit from Qiagen (Valencia, Calif., USA). RQ-PCR was performed using TaqMan probes and master mix from Applied Biosystems (Foster City, Calif., USA). Data were analyzed using the graph pad prism software.
To investigate the effect of MDA-7/IL-24 on osteoclast differentiation, bone marrow cells from athymic nude mice were isolated and induced to differentiate with RANKL in the presence or absence of MDA-7/IL-24 protein. Five days after induction with RANKL, osteoclast differentiation was measured by counting multinucleated cells. Cells positively stained for TRAP and multinucleated cells were quantified under a light microscope (FIG. 9A). […] To provide molecular insights into this inhibitory effect, we used a mouse macrophage cell line RAW 264.7, which can be induced to differentiate into osteoclasts when incubated with RANKL (32). Using RAW 264.7 cells, different genetic markers associated with osteoclastic differentiation were monitored (33). RAW 264.7 cells were treated with RANKL or MDA-7/IL-24 alone and in combination. RNA was isolated after 5 days of treatment and real time PCR quantified expression of TRAP, Cathepsin K (CTSK), and Calcitonin Receptor (CTR) genes. RANKL induced the expression of TRAP, CTSK and CTR gene expression. […]

[2] = tested on: PC3-ML^Akt; assay: Experimental bone metastasis model with PC3-ML cells over expressing constitutively active Akt; assay type: in vivo, male athymic nude mice; settings: MDA-7/IL-24 protein 5 mg/kg tail vein, 6 doses over three weeks
Experimental: To evaluate the role of Akt in vivo, metastatic PC3-ML cells and PC3-ML cells over expressing constitutively active Akt (PC3-MI/**) (FIG. 5A) carrying firefly luciferase were injected into male athymic nude mice through the intracardiac route. Clone 1 was used for the in vivo studies, which was validated for expression of Akt downstream pathway gene expression by western blotting (FIG. 14). Proliferation, invasion, and migration of the tumor cells were monitored by IVIS® imaging. […] The Akt overexpressing PC3-ML cells were more metastatic than the control PC3-ML cells. […] These observations illustrate the significance of Akt in PC-mediated bone metastasis development, which can be partially abrogated by MDA-7/IL-24-treatment (FIG. 5B). […] To investigate osteoclastic differentiation in these animals, bone marrow cells were isolated after completion of the study. Osteoclast differentiation was induced as described above. […] Osteoclast differentiation assays further illustrated the importance of Akt in PC-mediated bone metastasis (FIGS. 5D and 5E). A schematic representation of the proposed role of MDA-7/IL-24 protein in PC-mediated bone metastasis through modulation of the bone microenvironment is presented in FIG. 6. […]

[3] = tested on: primary bone marrow cells; assay: Live-dead cell assay on primary bone marrow cells; assay type: cell-based, mouse; settings: treated in vitro at different doses
Experimental: Live-Dead Cell Assay: Live and dead cells were observed by confocal laser microscopy (Zeiss, Germany) after staining with live/dead staining reagent (Invitrogen, Carlsbad, Calif., USA) as per the manufacturer's instructions. The images were analyzed by Zeiss software.
BLI imaging followed development of metastatic lesions in bone.

[4] = tested on: immortalized normal primary human prostate epithelial cells (RWPE-1); assay: Colony formation (clonal) assay in RWPE-1 cells; assay type: cell-based; settings: 200 cells plated, colonies counted 2 weeks after treatment
Experimental: (§1) MTT Cell Proliferation and Clonal Assays: Cell proliferation assays were done as described previously (25). Briefly, 2,000 cells were seeded in each well of a 96-well plate and allowed to attach overnight. Cells were treated with complete media in the presence or absence of different concentrations of MDA-7/IL-24 protein. At appropriate time points, cells were further incubated with MTT (3-(4, 5-di methyl thiazol-2-yl)-2, 5 diphenyl tetrazolium bromide) reagents. Finally, DMSO was applied to dissolve the blue salt and the OD was measured at 560 nm (25). For determining long-term effects, colony formation (cloning) assays were performed as described earlier (26). Briefly, 200 cells were plated and allowed to grow in the presence or absence of MDA-7/IL-24 for an additional 15 days. Culture media was replaced with fresh media containing MDA-7/IL-24 protein once a week, two times in total.

[5] = tested on: PC cells; assay: Colony formation (clonal) assay in PC cell lines; assay type: cell-based; settings: 200 cells plated, colonies counted 2 weeks after treatment
Experimental: as §1

[6] = tested on: RAW 264.7; assay: MTT proliferation assay in RAW 264.7 cells; assay type: cell-based, mouse; settings: His-MDA-7 10 μg/ml, 5 days
Experimental: as §1, with “Briefly, 200 cells were plated and allowed to grow in the presence or absence of MDA-7/IL-24 for an additional 15 days. Culture media was replaced with fresh media containing MDA-7/IL-24 protein once a week, two times in total.” left out
To investigate the effect of MDA-7/IL-24 on osteoclast differentiation, bone marrow cells from athymic nude mice were isolated and induced to differentiate with RANKL in the presence or absence of MDA-7/IL-24 protein. Five days after induction with RANKL, osteoclast differentiation was measured by counting multinucleated cells. Cells positively stained for TRAP and multinucleated cells were quantified under a light microscope (FIG. 9A). […] Using RAW 264.7 cells, different genetic markers associated with osteoclastic differentiation were monitored (33). […] RNA was isolated after 5 days of treatment and real time PCR quantified expression of TRAP, Cathepsin K (CTSK), and Calcitonin Receptor (CTR) genes. […]

[7] = tested on: bone marrow cells; assay: In vitro RANKL-induced osteoclast differentiation of primary bone marrow cells; assay type: cell-based, athymic nude mice; settings: RANKL induction 5 days, 10 μg/mL MDA-7/IL-24 protein
Experimental: (§2) Osteoclast Formation Assays: Bone marrow cells were induced for osteoclast differentiation using previously described protocols (28). Briefly, bone marrow cells were cultured in minimal essential medium (α-MEM) with 10% fetal bovine serum with MCSF (10 ng/ml) for 24 hrs. They were subsequently treated with RANKL (100 ng/ml) for 5 days. Cultured cells were fixed and stained for TRAP (Tartarate-resistant acid phosphatase). TRAP staining was performed following the specific protocol provided with the kit (Sigma-Aldrich, Inc. St. Louis, Mo., USA). Multinucleated cells, considered as differentiated osteoclasts, were counted manually under bright field microscope. TRACP enzymatic assays were done as per the manufacturer's instructions (R & D, Minneapolis, Minn., USA).
To investigate the effect of MDA-7/IL-24 on osteoclast differentiation, bone marrow cells from athymic nude mice were isolated and induced to differentiate with RANKL in the presence or absence of MDA-7/IL-24 protein. Five days after induction with RANKL, osteoclast differentiation was measured by counting multinucleated cells. Cells positively stained for TRAP and multinucleated cells were quantified under a light microscope (FIG. 9A). […] To provide molecular insights into this inhibitory effect, we used a mouse macrophage cell line RAW 264.7, which can be induced to differentiate into osteoclasts when incubated with RANKL (32). Using RAW 264.7 cells, different genetic markers associated with osteoclastic differentiation were monitored (33). RAW 264.7 cells were treated with RANKL or MDA-7/IL-24 alone and in combination. RNA was isolated after 5 days of treatment and real time PCR quantified expression of TRAP, Cathepsin K (CTSK), and Calcitonin Receptor (CTR) genes. RANKL induced the expression of TRAP, CTSK and CTR gene expression. […] MTT assays were performed to determine if MDA-7/IL-24 caused any growth suppression in this cell line. Proliferation of RAW 264.7 was not affected by MDA-7/IL-24, further illustrating the tumor-specificity of this cytokine (FIG. 10B). DU-145 (PC) cells were used as a positive control (FIG. 10C).

[8] = tested on: bone marrow cells; assay: Osteoclast differentiation of bone marrow cells isolated from treated PC3-ML tumor bearing animals (TRAP staining, TRACP assay); assay type: in vivo, mice; settings: MDA-7/IL-24 protein 5 mg/kg, 6 doses; differentiation induced ex vivo
Experimental: as §2
This was quantified by counting the number of osteoclasts (FIG. 2D) and also measuring TRACP osteoclastic enzymatic activity (FIG. 2E). These initial results indicated a potential function of MDA-7/IL-24 in regulating osteoclast differentiation.
Suppression of osteoclast differentiation was also evaluated using an in vivo metastatic model (FIG. 4C). Bone marrow cells were isolated after sacrifice of mice and osteoclast differentiation was induced. […] This was evident by counting osteoclasts (FIG. 4C) and also by measuring TRACP osteoclastic enzymatic activity (FIG. 4D).

B1: MDA-7/IL-24 protein: Recombinant His-tagged MDA-7/IL-24 protein purified on Ni-NTA from supernatant of IM-PHFA cells infected with Ad.5-His-mda-7 (protein)
chain: QEFHFGPCQVKGVVPQKLWEAFWAVKDTMQAQDNITSARLLQQEVLQNVSDAESCYLVHTLLEFYLKTVFKNYHNRTVEVRTLKSFSTLANNFVLIVSQLQPSQENEMFSIRDSAHRRFLLFRRAFKQLDVEAALTKALGEVDILLTWMQKFYKL
RANKL-induced TRAP, CTSK and CTR gene expression [1]: attenuated RANKL-induced regulation of these genes
bone metastasis by PC3-ML^Akt cells [2]: diminished the inhibitory effects
bone metastasis by PC3-ML^Akt cells ([2]; listed as MDA-7/IL-24): inhibited metastasis
toxicity in primary bone marrow cells ([3]; listed as His-MDA-7): No apparent toxicity
toxicity in primary bone marrow cells ([3]; listed as MDA-7/IL-24): no effect
proliferation capacity of RWPE-1 (colony formation) [4]: without affecting the proliferation capacity
proliferation of PC cells (colony formation) [5]: significantly reduced the proliferation of PC cells
Proliferation of RAW 264.7 (MTT) [6]: not affected
number of osteoclasts (osteoclast differentiation) ([7]; listed as His-MDA-7): decreased significantly
osteoclast activity (TRACP enzymatic activity) ([7]; listed as His-MDA-7): significantly less
number of osteoclasts (osteoclast differentiation) ([7]; listed as MDA-7/IL-24): significantly reduced; also recorded: reduced osteoclast differentiation
osteoclast activity (TRACP enzymatic activity) ([7]; listed as MDA-7/IL-24): significantly reduced
number of osteoclasts from bone marrow of treated animals [8]: significantly fewer osteoclasts
osteoclastic activity of bone marrow from treated animals [8]: less osteoclastic activity
